Target: T1, FcεRII (CD23, low affinity IgE receptor) (human, UniProt P06734 1-321)
T1 construct: whole, on cells
T1 sequence (looked up): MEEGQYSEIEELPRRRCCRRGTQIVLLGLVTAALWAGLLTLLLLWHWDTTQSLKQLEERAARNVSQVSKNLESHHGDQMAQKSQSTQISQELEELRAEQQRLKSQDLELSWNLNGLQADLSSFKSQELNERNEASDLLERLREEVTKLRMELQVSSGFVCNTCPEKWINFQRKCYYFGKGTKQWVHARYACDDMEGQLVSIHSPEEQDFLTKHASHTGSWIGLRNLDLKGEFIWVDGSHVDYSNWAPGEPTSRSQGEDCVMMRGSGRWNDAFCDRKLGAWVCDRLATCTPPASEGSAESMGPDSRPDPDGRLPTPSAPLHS
Test: flow cytometry on human primary monocytes and U937 cells
Text: FIG. 3: Flow cytometric histograms showing HMW-MAA-IgE binding. A: Binding of chimaeric IgE to A375 melanoma tumour cells (left) but not to melanocytes (right). B: Binding of IgE to U937 monocytic cells (left) and to primary […] (right). Antibody binding was detected using a goat anti-human IgE-FITC antibody. C: Flow cytometric histograms showing HMW-MAA-IgG binding to A375 melanoma tumour cells (left) and U937 monocytic cells (right). Antibody binding was detected using a goat anti-human IgG-FITC antibody.
The interactions of anti-HMW-MAA antibodies with A375 melanoma tumour cells were analysed by flow cytometry and immunofluoresence. […] The IgE antibody also bound to FcεR-expressing human primary monocytes and cells of the monocytic cell line U937, which also express both IgE receptors, FcεRI and FcεRII at low densities (FIG. 3). The IgG1 antibody bound to the surface of A375 melanoma cells and U937 monocytic cells (FIG. 3C). […] Therefore, both chimaeric antibodies of known specificity could be engineered that recognised the expected tumour target and immune effector cells.

binding result: binds
B1: chimeric anti-HMW-MAA IgE antibody (antibody)
heavy: QVKLQQSGGGLVQPGGSMKLSCVVSGFTFSNYWMNWVRQSPEKGLEWIAEIRLKSNNFGRYYAESVKGRFTISRDDSKSSAYLQMINLRAEDTGIYYCTSYGNYVGHYFDHWGQGTTVTVSSASTQSPSVFPLTRCCKNIPSNATSVTLGCLATGYFPEPVMVTWDTGSLNGTTMTLPATTLTLSGHYATISLLTVSGAWAKQMFTCRVAHTPSSTDWVDNKTFSVCSRDFTPPTVKILQSSCDGGGHFPPTIQLLCLVSGYTPGTINITWLEDGQVMDVDLSTASTTQEGELASTQSELTLSQKHWLSDRTYTCQVTYQGHTFEDSTKKCADSNPRGVSAYLSRPSPFDLFIRKSPTITCLVVDLAPSKGTVNLTWSRASGKPVNHSTRKEEKQRNGTLTVTSTLPVGTRDWIEGETYQCRVTHPHLPRALMRSTTKTSGPRAAPEVYAFATPEWPGSRDKRTLACLIQNFMPEDISVQWLHNEVQLPDARHSTTQPRKTKGSGFFVFSRLEVTRAEWEQKDEFICRAVHEAASPSQTVQRAVSVNPGK
light: DIELTQSPKFMSTSVGDRVSVTCKASQNVDTNVAWYQQKPGQSPEPLLFSASYRYTGVPDRFTGSGSGTDFTLTISNVQSEDLAEYFCQQYNSYPLTFGGGTKLEIKRTVAAPSVFIFPPSDEQLKSGTASVVCLLNNFYPREAKVQWKVDNALQSGNSQESVTEQDSKDSTYSLSSTLTLSKADYEKHKVYACEVTHQGLSSPVTKSFNRGEC
notes: Mouse 225.28s variable regions on human epsilon and kappa constant regions; expressed in HEK cells; also called chimaeric IgE; chimaeric 225.28s IgE
